The values below come from patent EP4814014A1, “BINDING MOLECULE AND ANTIBODY-DRUG CONJUGATE AND USE THEREOF” (priority 2023, dated 2025).

B1: V-7 (9B8-9A2-7A12) (bispecific antibody)
chain: QVQLVESGGGLVQPGGSLRLSCAASGLTFSYYAMAWFRQAPGKEREFVAAINWNGGNTYNTDSVKGRFTISRDNAKNTVYLQMNSLKPEDTAVYYCAVRYNSASYLVARSSDYNYWGQGTLVTVSSGGGGSQSQLAESGGGLVQSGGSLGLSCVASGFTISRSIMSWYRQPPGKERDWVASIGSAGNTNYVDSVKGRFTISRDVAKNTVYLQMNSLKPEDTAVYYCKTTLAVSFSEYWGQGTQVTVSSGGGGSGGGGSEVQLVESGGGLVQAGGSLRLSCVASGNIFSSNHMGWFRQAPGKQREFIAYITTREITNYADSVKGRFTISRDNTKNTVYLQMNVLKPEDTAVYYCIADQSREIRRSWGQGTQVTVSS
notes: Single-chain trispecific anti-EGFR/cMet antibody
B2: V-9 (9B8-7A12-9A2) (bispecific antibody)
chain: QVQLVESGGGLVQPGGSLRLSCAASGLTFSYYAMAWFRQAPGKEREFVAAINWNGGNTYNTDSVKGRFTISRDNAKNTVYLQMNSLKPEDTAVYYCAVRYNSASYLVARSSDYNYWGQGTLVTVSSGGGGSEVQLVESGGGLVQAGGSLRLSCVASGNIFSSNHMGWFRQAPGKQREFIAYITTREITNYADSVKGRFTISRDNTKNTVYLQMNVLKPEDTAVYYCIADQSREIRRSWGQGTQVTVSSGGGGSGGGGSQSQLAESGGGLVQSGGSLGLSCVASGFTISRSIMSWYRQPPGKERDWVASIGSAGNTNYVDSVKGRFTISRDVAKNTVYLQMNSLKPEDTAVYYCKTTLAVSFSEYWGQGTQVTVSS
notes: as for B1
B3: V-13 (10A1-9A2-7A12) (bispecific antibody)
chain: QVQLVESGGGLVQAGGSLRLSCAASGRTGSLHAMGWFRQAPGKERERVATLNLSDGSAVTADSVKGRFTISTDNTKNSVYLQMNSLKPEDTAVYYCTASRSPSGIRYYKPDYWGQGTQVTVSSGGGGSQSQLAESGGGLVQSGGSLGLSCVASGFTISRSIMSWYRQPPGKERDWVASIGSAGNTNYVDSVKGRFTISRDVAKNTVYLQMNSLKPEDTAVYYCKTTLAVSFSEYWGQGTQVTVSSGGGGSGGGGSEVQLVESGGGLVQAGGSLRLSCVASGNIFSSNHMGWFRQAPGKQREFIAYITTREITNYADSVKGRFTISRDNTKNTVYLQMNVLKPEDTAVYYCIADQSREIRRSWGQGTQVTVSS
notes: as for B1
B4: V-3 (5B10-7A12-9A2) (bispecific antibody)
chain: AVQLVDSGGGLVQPGGSLRLDCSASGTIIGTYTMAWYRQAPGKQREMVAIITPGGGSHHADSVKGRFTISRDNGKSTVYLQMSSLKFEDTAVYYCNAKARWGTTEYWGQGTQVTVSSGGGGSEVQLVESGGGLVQAGGSLRLSCVASGNIFSSNHMGWFRQAPGKQREFIAYITTREITNYADSVKGRFTISRDNTKNTVYLQMNVLKPEDTAVYYCIADQSREIRRSWGQGTQVTVSSGGGGSGGGGSQSQLAESGGGLVQSGGSLGLSCVASGFTISRSIMSWYRQPPGKERDWVASIGSAGNTNYVDSVKGRFTISRDVAKNTVYLQMNSLKPEDTAVYYCKTTLAVSFSEYWGQGTQVTVSS
notes: as for B1
B5: V-1 (5B10-9A2-7A12) (bispecific antibody)
chain: AVQLVDSGGGLVQPGGSLRLDCSASGTIIGTYTMAWYRQAPGKQREMVAIITPGGGSHHADSVKGRFTISRDNGKSTVYLQMSSLKFEDTAVYYCNAKARWGTTEYWGQGTQVTVSSGGGGSQSQLAESGGGLVQSGGSLGLSCVASGFTISRSIMSWYRQPPGKERDWVASIGSAGNTNYVDSVKGRFTISRDVAKNTVYLQMNSLKPEDTAVYYCKTTLAVSFSEYWGQGTQVTVSSGGGGSGGGGSEVQLVESGGGLVQAGGSLRLSCVASGNIFSSNHMGWFRQAPGKQREFIAYITTREITNYADSVKGRFTISRDNTKNTVYLQMNVLKPEDTAVYYCIADQSREIRRSWGQGTQVTVSS
notes: as for B1
B6: zn5B10.m18 (VHH, not shown: small tags and cut ends)
VHH: EVQLVESGGGLVQPGGSLRLSCSASGTIIGTYTMAWYRQAPGKQREMVAIITPGGGSHHADSVKGRFTISRDNSKSTVYLQMSSLRAEDTAVYYCNAKARWGTTEYWGQGTLVTVSS
notes: Humanized anti-EGFR VHH-His
B7: zn5B10.m20 (VHH, not shown: small tags and cut ends)
VHH: B6 VHH with S76N, V78L
notes: Humanized anti-EGFR VHH-His; also called hu5B10
B8: zn5B10.m22 (VHH, not shown: small tags and cut ends)
VHH: B6 VHH with S76N, V78L, A87F
notes: Humanized anti-EGFR VHH-His
B9: zn5B10.m23 (VHH, not shown: small tags and cut ends)
VHH: B6 VHH with S21D, A87F
notes: Humanized anti-EGFR VHH-His
B10: zn5B10.m21 (VHH, not shown: small tags and cut ends)
VHH: B6 VHH with S74G, S76N, V78L
notes: Humanized anti-EGFR VHH-His
B11: zn5B10.m16 (VHH, not shown: small tags and cut ends)
VHH: B6 VHH with S23A, S76N, V78L, S83N, L112M
notes: Humanized anti-EGFR VHH-His
B12: zn5B10.m17 (VHH, not shown: small tags and cut ends)
VHH: B6 VHH with S23A, S76N, S83N, L112M
notes: Humanized anti-EGFR VHH-His
B13: V-n9B8 anti-EGFR VHH-His (VHH, not shown: small tags and cut ends)
VHH: QVQLVESGGGLVQPGGSLRLSCAASGLTFSYYAMAWFRQAPGKEREFVAAINWNGGNTYNTDSVKGRFTISRDNAKNTVYLQMNSLKPEDTAVYYCAVRYNSASYLVARSSDYNYWGQGTLVTVSS
notes: Monovalent parent VHH
B14: zn9B8.m4 (VHH, not shown: small tags and cut ends)
VHH: B13 VHH with Q1E, V5L, A75S, K87R, P88S
notes: Humanized anti-EGFR VHH-His
B15: zn10A1.m5 (VHH, not shown: small tags and cut ends)
VHH: QVQLVQSGPEVKKPGTSVKVSCKASGRTGSLHAMGWFRQARGQERERVATLNLSDGSAVTADSVKGRFTITTDNSKNSVYMELSSLRSEDTAVYYCTASRSPSGIRYYKPDYWGQGTMVTVSS
B16: zn10A1.m6 (VHH, not shown: small tags and cut ends)
VHH: QVQLVESGGGLVQPGGSLRLSCAASGRTGSLHAMGWFRQAPGKERERVATLNLSDGSAVTADSVKGRFTISTDNSKNSVYLQMNSLRAEDTAVYYCTASRSPSGIRYYKPDYWGQGTLVTVSS
B17: pn10A1.m6 (VHH, not shown: small tags and cut ends)
VHH: B16 VHH with P14A, G56A, S75T, R87K, A88P, L118Q
B18: pn10A1.m2 (VHH, not shown: small tags and cut ends)
VHH: B16 VHH with P14A, S54A, S75T, R87K, A88P, L118Q
B19: pn10A1.m1 (VHH, not shown: small tags and cut ends)
VHH: B16 VHH with P14A, N52Q, S75T, R87K, A88P, L118Q
B20: pn10A1.m5 (VHH, not shown: small tags and cut ends)
VHH: B16 VHH with P14A, G56V, S75T, R87K, A88P, L118Q
B21: pn10A1.m4 (VHH, not shown: small tags and cut ends)
VHH: B16 VHH with P14A, D55E, S75T, R87K, A88P, L118Q
B22: pn10A1.m3 (VHH, not shown: small tags and cut ends)
VHH: B16 VHH with P14A, N52Q, S54T, S75T, R87K, A88P, L118Q

For orientation: Kd means the concentration at which binding is half-saturated. The koff is a measure of how fast the partners let go of each other. Broadly, the kon is a measure of how fast the partners come together. A word on the EC50: it is the concentration at which the effect is half-maximal.

Substitutions are numbered along the chain they refer to.

The first assay deals with T1, human cMet-his (ECD, Met1-Thr932) (human, UniProt P08581 25-932).
T1 construct: Bought; range as printed includes Met1
T1 sequence (P08581 25-932): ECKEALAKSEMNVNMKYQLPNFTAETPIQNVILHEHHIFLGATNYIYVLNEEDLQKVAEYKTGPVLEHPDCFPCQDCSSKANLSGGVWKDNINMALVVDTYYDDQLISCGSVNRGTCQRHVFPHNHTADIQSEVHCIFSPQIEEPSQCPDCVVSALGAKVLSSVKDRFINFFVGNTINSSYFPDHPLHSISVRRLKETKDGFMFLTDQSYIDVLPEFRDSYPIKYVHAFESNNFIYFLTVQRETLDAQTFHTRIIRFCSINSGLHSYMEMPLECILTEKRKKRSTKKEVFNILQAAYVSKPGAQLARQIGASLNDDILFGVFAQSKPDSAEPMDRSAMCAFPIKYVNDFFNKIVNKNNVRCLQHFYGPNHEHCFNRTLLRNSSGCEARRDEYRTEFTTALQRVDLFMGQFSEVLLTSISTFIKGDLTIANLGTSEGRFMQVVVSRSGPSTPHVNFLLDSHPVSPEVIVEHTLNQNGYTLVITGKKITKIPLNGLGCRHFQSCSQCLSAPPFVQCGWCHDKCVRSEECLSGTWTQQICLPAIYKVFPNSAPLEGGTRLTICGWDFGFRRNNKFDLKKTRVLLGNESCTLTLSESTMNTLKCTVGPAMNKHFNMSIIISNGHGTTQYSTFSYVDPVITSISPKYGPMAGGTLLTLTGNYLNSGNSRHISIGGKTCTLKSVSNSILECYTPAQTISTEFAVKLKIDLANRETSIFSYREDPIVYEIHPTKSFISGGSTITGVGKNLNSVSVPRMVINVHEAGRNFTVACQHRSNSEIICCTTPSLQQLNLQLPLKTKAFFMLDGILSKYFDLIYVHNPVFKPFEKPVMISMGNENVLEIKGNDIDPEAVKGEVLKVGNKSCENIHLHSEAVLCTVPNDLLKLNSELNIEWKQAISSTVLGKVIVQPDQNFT
The assay is described as follows: SPR, antigen amine-coupled on GLM chip, antibody injected, 1:1 model. In general terms: In SPR one partner is held on a chip, and binding of the other changes the refractive index at the surface.
The molecule B1 registered a Kd of 10.2 nM, an off-rate (koff) of 0.00133 s⁻¹ and a kon of 130000 M⁻¹ s⁻¹.

As to B2, binding was put at a Kd of 14.4 nM, the koff stood at 0.00167 s⁻¹ and the kon was determined as 116000 M⁻¹ s⁻¹.

In turn, B3 yielded a Kd of 2.72 nM, a koff of 0.000825 s⁻¹ and a kon of 304000 M⁻¹ s⁻¹.

B4: the Kd was determined as 8.61 nM, the koff came out at 0.00158 s⁻¹ and the kon stood at 183000 M⁻¹ s⁻¹.

The molecule B5 showed a Kd of 9.81 nM, a koff of 0.00132 s⁻¹ and a kon of 135000 M⁻¹ s⁻¹.

A further assay deals with T2, cynomolgus monkey cMet-his (ECD, Met1-Thr932) (cynomolgus monkey, UniProt A0A2K5UM36 25-932).
T2 construct: Bought; range as printed includes Met1
T2 sequence (A0A2K5UM36 entry or part of it limits assumed, form in doubt): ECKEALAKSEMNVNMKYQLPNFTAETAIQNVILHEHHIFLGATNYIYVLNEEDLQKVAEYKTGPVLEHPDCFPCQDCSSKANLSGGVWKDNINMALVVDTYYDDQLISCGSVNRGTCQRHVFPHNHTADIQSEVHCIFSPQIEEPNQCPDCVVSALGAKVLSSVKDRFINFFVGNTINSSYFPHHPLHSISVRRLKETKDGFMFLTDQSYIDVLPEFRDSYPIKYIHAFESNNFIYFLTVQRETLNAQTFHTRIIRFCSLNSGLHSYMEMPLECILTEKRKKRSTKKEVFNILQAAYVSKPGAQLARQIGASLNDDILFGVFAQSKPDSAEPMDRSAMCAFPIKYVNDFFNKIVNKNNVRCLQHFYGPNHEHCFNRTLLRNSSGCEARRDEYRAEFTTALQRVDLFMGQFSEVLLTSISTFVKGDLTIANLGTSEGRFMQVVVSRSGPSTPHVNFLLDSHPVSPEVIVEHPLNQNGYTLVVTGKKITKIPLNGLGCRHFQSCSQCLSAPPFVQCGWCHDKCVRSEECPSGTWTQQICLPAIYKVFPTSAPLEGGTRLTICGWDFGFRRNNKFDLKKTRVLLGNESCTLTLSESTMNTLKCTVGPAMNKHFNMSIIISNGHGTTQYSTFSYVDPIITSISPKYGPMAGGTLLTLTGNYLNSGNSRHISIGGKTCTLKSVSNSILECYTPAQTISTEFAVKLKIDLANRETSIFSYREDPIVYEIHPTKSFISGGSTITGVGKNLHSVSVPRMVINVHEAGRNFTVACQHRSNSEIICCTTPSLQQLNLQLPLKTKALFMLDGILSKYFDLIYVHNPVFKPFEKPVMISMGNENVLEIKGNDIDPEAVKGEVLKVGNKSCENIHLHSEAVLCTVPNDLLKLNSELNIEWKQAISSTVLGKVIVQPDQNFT
The description is as above.
B1 had a dissociation constant (Kd) of 6.59 nM, a koff of 0.000789 s⁻¹ and a kon of 120000 M⁻¹ s⁻¹.

Consider B2, for which the Kd was found to be 10.2 nM, the koff worked out at 0.0011 s⁻¹ and the kon was determined as 108000 M⁻¹ s⁻¹.

Consider B3, for which binding was characterised by a dissociation constant (Kd) of 1.91 nM, the koff came out at 0.000381 s⁻¹ and the kon turned out to be 200000 M⁻¹ s⁻¹.

For the molecule B4, the Kd turned out to be 5.99 nM, the koff is 0.00106 s⁻¹ and the kon amounted to 176000 M⁻¹ s⁻¹.

B5: binding was put at a Kd of 6.43 nM, the koff was found to be 0.000855 s⁻¹ and the kon is 133000 M⁻¹ s⁻¹.

In a further assay the target is T3, cynomolgus monkey EGFR-his (ECD, Met1-Ser645) (cynomolgus monkey, UniProt A0A2K5WK39 1-645).
T3 construct: range 1-645; Bought; range as printed includes Met1
The assay is described as above.
Molecule B1 returned a Kd of 0.00135 nM, a dissociation rate constant (koff) of 1.25e-07 s⁻¹ and a kon of 93200 M⁻¹ s⁻¹.

B2 came in with a Kd of 0.0255 nM, a koff of 1.95e-06 s⁻¹ and a kon of 76400 M⁻¹ s⁻¹.

For the molecule B3, the Kd worked out at 37.4 nM, the off-rate (koff) came out at 0.0162 s⁻¹ and the kon turned out to be 433000 M⁻¹ s⁻¹.

On to B4, for which the affinity, expressed as Kd, was 21.8 nM; the koff amounted to 0.00246 s⁻¹; the kon is 112000 M⁻¹ s⁻¹.

Take B5: the dissociation constant (Kd) came to 27.8 nM, the koff amounted to 0.00206 s⁻¹ and the kon came out at 74100 M⁻¹ s⁻¹.

The next assay has as its target T4, human EGFR-his (ECD, Met1-Ser645) (human, UniProt P00533 25-645).
T4 construct: range 1-645; Bought; range as printed includes Met1
The description is as above.
B1 yielded a Kd of 0.0128 nM, a koff of 1.17e-06 s⁻¹ and a kon of 91600 M⁻¹ s⁻¹.

Molecule B2 gave a Kd of 0.0027 nM, a koff of 2.35e-07 s⁻¹ and a kon of 86900 M⁻¹ s⁻¹.

B3 yielded a Kd of 48.9 nM, a koff of 0.0135 s⁻¹ and a kon of 276000 M⁻¹ s⁻¹.

As to B4, the Kd was 25.1 nM, the koff amounted to 0.003 s⁻¹ and the kon was found to be 119000 M⁻¹ s⁻¹.

In the case of B5, the affinity, expressed as Kd, was 31.7 nM; the koff amounted to 0.00354 s⁻¹; the kon was 112000 M⁻¹ s⁻¹.

For another assay, the target named is T5, human EGFR on cells (human, UniProt P00533 25-1210).
T5 construct: whole, on cells; the cell line is named under assay; also called CHO-S-EGFR; CHOK1-huEGFR
The assay is described as follows: FACS, VHH-His on MDA-MB-468 cells. (In general: In flow cytometry, cells or beads pass a laser one at a time.)
As to B6, a half-maximal effect (EC50) was put at 1.3 nM and the “Maximum MFI value” amounted to 71100 MFI.

For B7, it took 0.219 nM to reach a half-maximal effect (EC50) and the “Maximum MFI value” turned out to be 59200 MFI.

Consider B8, for which the midpoint of the response, the EC50, lay at 1.15 nM and the “Maximum MFI value” turned out to be 86900 MFI.

Consider B9, for which the midpoint of the response, the EC50, lay at 1.94 nM and the “Maximum MFI value” turned out to be 74200 MFI.

Regarding B10, a half-maximal effect (EC50) was put at 0.429 nM and the “Maximum MFI value” turned out to be 58700 MFI.

B11: the concentration for a half-maximal effect (EC50) turned out to be 3.13 nM and the “Maximum MFI value” came to 76800 MFI.

As for B12, the EC50 turned out to be 23.2 nM and the “Maximum MFI value” worked out at 93600 MFI.

In the case of B13, the EC50 was 2.04 nM and the “Maximum MFI value” turned out to be 94600 MFI.

B14: the midpoint of the response, the EC50, lay at 1.43 nM and the “Maximum MFI value” came out at 57100 MFI.

In the case of B15, the Maximum MFI value stood at 3480 MFI.

For B16, the Maximum MFI value was determined as 9680 MFI.

Molecule B17 yielded a Maximum MFI value of 5790 MFI.

B18 showed a Maximum MFI value of 3770 MFI.

Molecule B19 showed a Maximum MFI value of 10300 MFI.

The molecule B20 had a Maximum MFI value of 27400 MFI.

As to B21, the Maximum MFI value was determined as 5260 MFI.

Regarding B22, the Maximum MFI value is 5480 MFI.
